T1: human FcγRIIb extracellular domain, His-tagged (human, UniProt P31994 43-217)
T1 construct: also called FcgRIIb (human)
T1 sequence: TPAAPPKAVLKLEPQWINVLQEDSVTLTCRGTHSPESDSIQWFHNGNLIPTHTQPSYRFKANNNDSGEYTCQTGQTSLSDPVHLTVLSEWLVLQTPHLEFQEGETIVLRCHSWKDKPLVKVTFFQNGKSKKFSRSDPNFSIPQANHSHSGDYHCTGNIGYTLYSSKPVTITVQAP

T2: human FcγRIIaR extracellular domain, His-tagged (human, UniProt P12318 34-217)
T2 construct: also called human FcγRIIa (type R); FcgRIIaR
T2 chain: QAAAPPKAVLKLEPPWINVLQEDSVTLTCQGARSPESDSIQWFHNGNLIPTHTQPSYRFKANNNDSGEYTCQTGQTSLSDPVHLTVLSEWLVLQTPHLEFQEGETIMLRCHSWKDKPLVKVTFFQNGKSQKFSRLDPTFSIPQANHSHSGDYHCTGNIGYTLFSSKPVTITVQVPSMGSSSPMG

T3: cynomolgus monkey FcγRIIa3 extracellular domain, His-tagged (cynomolgus monkey)
T3 construct: also called cyno FcγRIIa3; cynoFcgRIIa3
T3 chain: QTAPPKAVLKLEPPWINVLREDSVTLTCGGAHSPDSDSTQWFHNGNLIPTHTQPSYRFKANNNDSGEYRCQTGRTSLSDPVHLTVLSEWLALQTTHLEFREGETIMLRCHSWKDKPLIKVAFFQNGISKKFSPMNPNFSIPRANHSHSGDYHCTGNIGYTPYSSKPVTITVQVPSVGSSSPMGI

T4: human FcγRIIaH extracellular domain, His-tagged (human, UniProt P12318 34-217)
T4 construct: also called human FcγRIIa (type H); FcgRIIaH
T4 sequence: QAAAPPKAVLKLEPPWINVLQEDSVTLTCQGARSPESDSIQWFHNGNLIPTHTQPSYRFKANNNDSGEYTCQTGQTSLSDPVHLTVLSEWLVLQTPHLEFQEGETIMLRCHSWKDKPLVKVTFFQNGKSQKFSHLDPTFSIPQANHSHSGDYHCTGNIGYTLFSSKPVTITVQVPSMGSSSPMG

T5: cynomolgus monkey FcγRIIb extracellular domain, His-tagged (cynomolgus monkey)
T5 construct: also called cyno FcγRIIb; cynoFcγRIIb
T5 chain: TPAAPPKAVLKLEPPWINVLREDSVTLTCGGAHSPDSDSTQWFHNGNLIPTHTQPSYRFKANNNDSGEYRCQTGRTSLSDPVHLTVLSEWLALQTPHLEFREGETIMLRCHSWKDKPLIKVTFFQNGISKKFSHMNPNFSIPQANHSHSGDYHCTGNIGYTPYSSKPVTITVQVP

T6: cynomolgus monkey FcγRIIa1 extracellular domain, His-tagged (cynomolgus monkey)
T6 construct: also called cyno FcγRIIa1; cynoFcgRIIa1
T6 chain: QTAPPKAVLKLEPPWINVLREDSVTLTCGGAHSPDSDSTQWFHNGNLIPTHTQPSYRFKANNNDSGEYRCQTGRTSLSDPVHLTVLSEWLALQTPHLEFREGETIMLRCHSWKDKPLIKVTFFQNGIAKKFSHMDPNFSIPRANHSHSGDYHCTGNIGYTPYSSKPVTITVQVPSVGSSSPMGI

T7: cynomolgus monkey FcγRIIa2 extracellular domain, His-tagged (cynomolgus monkey)
T7 construct: also called cyno FcγRIIa2; cynoFcgRIIa2
T7 chain: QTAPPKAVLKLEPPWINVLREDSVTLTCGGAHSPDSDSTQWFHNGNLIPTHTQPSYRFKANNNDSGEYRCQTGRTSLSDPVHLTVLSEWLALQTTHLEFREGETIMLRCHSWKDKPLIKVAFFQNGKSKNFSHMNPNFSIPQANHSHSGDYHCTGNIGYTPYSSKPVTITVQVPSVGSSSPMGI


Experiments:
Experiment in all cases: SPR, antibody captured, FcgR analyte
[1] = target: T1, human FcγRIIb extracellular domain, …
[2] = target: T8, human FcγRIIIaV extracellular domain, His-tagged (human, UniProt P08637 17-208)
T8 construct: also called FcgRIIIaV

[3] = target: T2, human FcγRIIaR extracellular domain, …
[4] = target: T3, cynomolgus monkey FcγRIIa3 …
[5] = target: T4, human FcγRIIaH extracellular domain, …
[6] = target: T5, cynomolgus monkey FcγRIIb extracellular …
[7] = target: T6, cynomolgus monkey FcγRIIa1 …
[8] = target: T7, cynomolgus monkey FcγRIIa2 …

T8 sequence (P08637 17-208 F176V): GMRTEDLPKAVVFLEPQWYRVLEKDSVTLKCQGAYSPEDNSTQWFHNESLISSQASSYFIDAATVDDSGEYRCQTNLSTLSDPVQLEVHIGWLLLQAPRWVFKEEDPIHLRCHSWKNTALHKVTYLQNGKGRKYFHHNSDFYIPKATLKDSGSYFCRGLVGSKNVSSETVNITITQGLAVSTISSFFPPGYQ

Binder | Kd [1] [µM] | Kd [2] [nM] | Kd [3] [nM] | Kd [4] [µM] | Kd [5] [nM] | Kd [6] [nM] | Kd [7] [µM] | Kd [8] [µM]
MS_M103205H795-SG1/M103202L889-SK1 (antibody, human IgG1, kappa, Parent antibody of the Fc variants; heavy chain constant region SG1, light chain M103202L889-SK1; also called MS1032LO06-SG1) heavy: not shown light: DIVMTQSPATLSLSPGERATLSCTSSQSVYHANWLSWFQQKPGQPPKLLIYWASTLAYGVPSRFSGSGSGTDFTLTISSLQPEDAATYYCAGGYGGGRYAFGQGTKVEIKRTVAAPSVFIFPPSDEQLKSGTASVVCLLNNFYPREAKVQWKVDNALQSGNSQESVTEQDSKDSTYSLSSTLTLSKADYEKHKVYACEVTHQGLSSPVTKSFNRGEC | 4.6 | 810 | 1100 | 17 | 690 | 1800 | 3.2 | 5.1
M103205H795-MY043/M103202L889-SK1 (antibody, human IgG1, kappa, Substitution put into M103205H795-SG1) heavy: not shown light: DIVMTQSPATLSLSPGERATLSCTSSQSVYHANWLSWFQQKPGQPPKLLIYWASTLAYGVPSRFSGSGSGTDFTLTISSLQPEDAATYYCAGGYGGGRYAFGQGTKVEIKRTVAAPSVFIFPPSDEQLKSGTASVVCLLNNFYPREAKVQWKVDNALQSGNSQESVTEQDSKDSTYSLSSTLTLSKADYEKHKVYACEVTHQGLSSPVTKSFNRGEC | 3 | 120 | 1500 | 18 | 2900 | 4400 | 5.8 | 61
M103205H795-MY044/M103202L889-SK1 (antibody, human IgG1, kappa, Substitution put into M103205H795-SG1) heavy: not shown light: DIVMTQSPATLSLSPGERATLSCTSSQSVYHANWLSWFQQKPGQPPKLLIYWASTLAYGVPSRFSGSGSGTDFTLTISSLQPEDAATYYCAGGYGGGRYAFGQGTKVEIKRTVAAPSVFIFPPSDEQLKSGTASVVCLLNNFYPREAKVQWKVDNALQSGNSQESVTEQDSKDSTYSLSSTLTLSKADYEKHKVYACEVTHQGLSSPVTKSFNRGEC | 3.3 | 900 | 920 | 52 | 1200 | 1600 | 3.2 | 3.5
M103205H795-MY010/M103202L889-SK1 (antibody, human IgG1, kappa, Substitution put into M103205H795-SG1) heavy: not shown light: DIVMTQSPATLSLSPGERATLSCTSSQSVYHANWLSWFQQKPGQPPKLLIYWASTLAYGVPSRFSGSGSGTDFTLTISSLQPEDAATYYCAGGYGGGRYAFGQGTKVEIKRTVAAPSVFIFPPSDEQLKSGTASVVCLLNNFYPREAKVQWKVDNALQSGNSQESVTEQDSKDSTYSLSSTLTLSKADYEKHKVYACEVTHQGLSSPVTKSFNRGEC | 9.1 | 220 | 1800 | 18 | 1200 | 2000 | 3.9 | 5
M103205H795-MY008/M103202L889-SK1 (antibody, human IgG1, kappa, Substitution put into M103205H795-SG1) heavy: not shown light: DIVMTQSPATLSLSPGERATLSCTSSQSVYHANWLSWFQQKPGQPPKLLIYWASTLAYGVPSRFSGSGSGTDFTLTISSLQPEDAATYYCAGGYGGGRYAFGQGTKVEIKRTVAAPSVFIFPPSDEQLKSGTASVVCLLNNFYPREAKVQWKVDNALQSGNSQESVTEQDSKDSTYSLSSTLTLSKADYEKHKVYACEVTHQGLSSPVTKSFNRGEC | 2.6 | 630 | 1800 | 24 | 1600 | 1700 | 4.2 | 3.7
M103205H795-MY016/M103202L889-SK1 (antibody, human IgG1, kappa, Substitution put into M103205H795-SG1) heavy: not shown light: DIVMTQSPATLSLSPGERATLSCTSSQSVYHANWLSWFQQKPGQPPKLLIYWASTLAYGVPSRFSGSGSGTDFTLTISSLQPEDAATYYCAGGYGGGRYAFGQGTKVEIKRTVAAPSVFIFPPSDEQLKSGTASVVCLLNNFYPREAKVQWKVDNALQSGNSQESVTEQDSKDSTYSLSSTLTLSKADYEKHKVYACEVTHQGLSSPVTKSFNRGEC | 2.9 | 370 | 940 | 3.2 | 850 | 1700 | 2.9 | 3.4
M103205H795-MY013/M103202L889-SK1 (antibody, human IgG1, kappa, Substitution put into M103205H795-SG1) heavy: not shown light: DIVMTQSPATLSLSPGERATLSCTSSQSVYHANWLSWFQQKPGQPPKLLIYWASTLAYGVPSRFSGSGSGTDFTLTISSLQPEDAATYYCAGGYGGGRYAFGQGTKVEIKRTVAAPSVFIFPPSDEQLKSGTASVVCLLNNFYPREAKVQWKVDNALQSGNSQESVTEQDSKDSTYSLSSTLTLSKADYEKHKVYACEVTHQGLSSPVTKSFNRGEC | 3.7 | 410 | 5100 | 52 | 2600 | 2000 | 4.5 | 4.7
M103205H795-MY041/M103202L889-SK1 (antibody, human IgG1, kappa, Substitution put into M103205H795-SG1) heavy: not shown light: DIVMTQSPATLSLSPGERATLSCTSSQSVYHANWLSWFQQKPGQPPKLLIYWASTLAYGVPSRFSGSGSGTDFTLTISSLQPEDAATYYCAGGYGGGRYAFGQGTKVEIKRTVAAPSVFIFPPSDEQLKSGTASVVCLLNNFYPREAKVQWKVDNALQSGNSQESVTEQDSKDSTYSLSSTLTLSKADYEKHKVYACEVTHQGLSSPVTKSFNRGEC | 3.1 | 480 | 1200 | 7.4 | 1800 | 3500 | 4 | 4.1

Continued by falling Kd [1], values first:

Kd [1] [µM] | Kd [2] [nM] | Kd [3] [nM] | Kd [4] [µM] | Kd [5] [nM] | Kd [6] [nM] | Kd [7] [µM] | Kd [8] [µM] | Binder
4.8 | 690 | 960 | 12 | 520 | 1500 | 2.5 | 2.5 | M103205H795-MY014/M103202L889-SK1 (antibody, human IgG1, kappa, Substitution put into M103205H795-SG1) heavy: not shown light: DIVMTQSPATLSLSPGERATLSCTSSQSVYHANWLSWFQQKPGQPPKLLIYWASTLAYGVPSRFSGSGSGTDFTLTISSLQPEDAATYYCAGGYGGGRYAFGQGTKVEIKRTVAAPSVFIFPPSDEQLKSGTASVVCLLNNFYPREAKVQWKVDNALQSGNSQESVTEQDSKDSTYSLSSTLTLSKADYEKHKVYACEVTHQGLSSPVTKSFNRGEC
2.6 | 370 | 910 | 9.6 | 1100 | 2400 | 3.8 | 4.5 | M103205H795-MY037/M103202L889-SK1 (antibody, human IgG1, kappa, Substitution put into M103205H795-SG1) heavy: not shown light: DIVMTQSPATLSLSPGERATLSCTSSQSVYHANWLSWFQQKPGQPPKLLIYWASTLAYGVPSRFSGSGSGTDFTLTISSLQPEDAATYYCAGGYGGGRYAFGQGTKVEIKRTVAAPSVFIFPPSDEQLKSGTASVVCLLNNFYPREAKVQWKVDNALQSGNSQESVTEQDSKDSTYSLSSTLTLSKADYEKHKVYACEVTHQGLSSPVTKSFNRGEC
2.6 | 650 | 1500 | 11 | 1200 | 1900 | 3.9 | 4.5 | M103205H795-MY038/M103202L889-SK1 (antibody, human IgG1, kappa, Substitution put into M103205H795-SG1) heavy: not shown light: DIVMTQSPATLSLSPGERATLSCTSSQSVYHANWLSWFQQKPGQPPKLLIYWASTLAYGVPSRFSGSGSGTDFTLTISSLQPEDAATYYCAGGYGGGRYAFGQGTKVEIKRTVAAPSVFIFPPSDEQLKSGTASVVCLLNNFYPREAKVQWKVDNALQSGNSQESVTEQDSKDSTYSLSSTLTLSKADYEKHKVYACEVTHQGLSSPVTKSFNRGEC
2.3 | 730 | 1800 | 3.6 | 1300 | 920 | 2 | 1.5 | M103205H795-MY006/M103202L889-SK1 (antibody, human IgG1, kappa, Substitution put into M103205H795-SG1) heavy: not shown light: DIVMTQSPATLSLSPGERATLSCTSSQSVYHANWLSWFQQKPGQPPKLLIYWASTLAYGVPSRFSGSGSGTDFTLTISSLQPEDAATYYCAGGYGGGRYAFGQGTKVEIKRTVAAPSVFIFPPSDEQLKSGTASVVCLLNNFYPREAKVQWKVDNALQSGNSQESVTEQDSKDSTYSLSSTLTLSKADYEKHKVYACEVTHQGLSSPVTKSFNRGEC

Reference: US20200317768A1 (published 2020)
